Here are results for 39 molecules from patent US20250026849A1 (ARCELLX, published 2025).

B1: D domain SEQ ID NO: 981 (designed binder)
chain: MGSWHSFKQDLAYIKYLLEALGGSEAELAQFEELIAFFEYYLQTYKGKGNPEVEALRKEAAAIRDELQAYRHN
B2: D domain SEQ ID NO: 980 (designed binder)
chain: MGSWKNFKLELALIKSKLEALGGSEAELAQFEADIAFFEWSLQWYKGKGNPEVEALRKEAAAIRDELQAYRHN
B3: D domain SEQ ID NO: 982 (designed binder)
chain: MGSWVVFKSSLAQIKILLEALGGSEAELAIFEVKIAHFEQELQEYKGKGNPEVEALRKEAAAIRDELQAYRHN
B4: D domain SEQ ID NO: 983 (designed binder)
chain: MGSWDQFKNSLASIKRVLEALGGSEAELAIFEVKIAHFEHFLQQYKGKGNPEVEALRKEAAAIRDELQAYRHN
B5: D domain SEQ ID NO: 984 (designed binder)
chain: MGSWNNFKSSLASIKQVLEALGGSEAELAVFELQIAHFERELQYYKGKGNPEVEALRKEAAAIRDELQAYRHN
B6: D domain SEQ ID NO: 960 (designed binder)
chain: MGSWIIFKTDLARIKNYLEALGGSEAELATFERDIAWFEFMLQIYKGKGNPEVEALRKEAAAIRDELQAYRHN
B7: D domain SEQ ID NO: 967 (designed binder)
chain: MGSWYTFKGSLAEIKNRLEALGGSEAELAMFESDIAWFEFMLQFYKGKGNPEVEALRKEAAAIRDELQAYRHN
B8: D domain SEQ ID NO: 979 (designed binder)
chain: MGSWMVFKQDLAEIKANLEALGGSEAELADFEFAIAWFEYELQWYKGKGNPEVEALRKEAAAIRDELQAYRHN
B9: D domain SEQ ID NO: 964 (designed binder)
chain: MGSWFVFKEDLAGIKFILEALGGSEAELAMFETDIAWFEYMLQYYKGKGNPEVEALRKEAAAIRDELQAYRHN
B10: D domain SEQ ID NO: 972 (designed binder)
chain: MGSWSIFKQDLADIKDSLEALGGSEAELAMFEMDIAWFEHTLQYYKGKGNPEVEALRKEAAAIRDELQAYRHN
B11: D domain SEQ ID NO: 975 (designed binder)
chain: MGSWSVFKDDLAQIKDRLEALGGSEAELAQFELDIAWFEYVLQFYKGKGNPEVEALRKEAAAIRDELQAYRHN
B12: D domain SEQ ID NO: 973 (designed binder)
chain: MGSWEIFKDDLASIKKVLEALGGSEAELALFESDIAWFELMLQYYKGKGNPEVEALRKEAAAIRDELQAYRHN
B13: D domain SEQ ID NO: 968 (designed binder)
chain: MGSWFTFKDDLAQIKNRLEALGGSEAELANFEMSIAWFEFMLQYYKGKGNPEVEALRKEAAAIRDELQAYRHN
B14: D domain SEQ ID NO: 976 (designed binder)
chain: MGSWAVFKDSLAHIKDVLEALGGSEAELALFEMDIAWFEYVLQDYKGKGNPEVEALRKEAAAIRDELQAYRHN
B15: D domain SEQ ID NO: 962 (designed binder)
chain: MGSWQIFKQDLAAIKDYLEALGGSEAELAIFEFDIAWFEHMLQWYKGKGNPEVEALRKEAAAIRDELQAYRHN
B16: D domain SEQ ID NO: 971 (designed binder)
chain: MGSWSYFKEDLANIKSSLEALGGSEAELAWFESSIAWFEHTLQYYKGKGNPEVEALRKEAAAIRDELQAYRHN
B17: D domain SEQ ID NO: 969 (designed binder)
chain: MGSWVLFKQDLAMIKQRLEALGGSEAELAMFEYDIAWFEHMLQYYKGKGNPEVEALRKEAAAIRDELQAYRHN
B18: D domain SEQ ID NO: 966 (designed binder)
chain: MGSWYYFKERLAAIKDRLEALGGSEAELAIFEADIAWFEFMLQYYKGKGNPEVEALRKEAAAIRDELQAYRHN
B19: D domain SEQ ID NO: 961 (designed binder)
chain: MGSWMHFKQDLAEIKGYLEALGGSEAELAIFEMDIAWFEYMLQYYKGKGNPEVEALRKEAAAIRDELQAYRHN
B20: D domain SEQ ID NO: 974 (designed binder)
chain: MGSWSIFKDDLAVIKERLEALGGSEAELAHFEQDIAWFEHLLQYYKGKGNPEVEALRKEAAAIRDELQAYRHN
B21: D domain SEQ ID NO: 970 (designed binder)
chain: MGSWVEFKRDLANIKQRLEALGGSEAELAQFEMQIAWFEHTLQYYKGKGNPEVEALRKEAAAIRDELQAYRHN
B22: D domain SEQ ID NO: 978 (designed binder)
chain: MGSWIHFKNDLAVIKDELEALGGSEAELARFEIMIAWFEDALQWYKGKGNPEVEALRKEAAAIRDELQAYRHN
B23: D domain SEQ ID NO: 977 (designed binder)
chain: MGSWIAFKDHLAIIKQRLEALGGSEAELARFEFEIAWFEWMLQYYKGKGNPEVEALRKEAAAIRDELQAYRHN
B24: D domain SEQ ID NO: 673 (designed binder)
chain: MGSWAEFEDRLAAIERRLEALGGSEAELADFESSIAWFEPDLQYYKGKGNPEVEALMYEAEAIFSELYAYRHN
B25: D domain SEQ ID NO: 662 (designed binder)
chain: MGSWFEFPYRLEAIEERLYALGGSEAELAQFEQFIAWFEMDLQDYKGKGNPEVEALWFEANAIVEELDAYRHN
B26: D domain SEQ ID NO: 668 (designed binder)
chain: MGSWYEFYWRLEAIEERLWALGGSEAELAEFEKAIATFEDQLQTYKGKGNPEVEALETEALAIHAELEAYRHN
B27: D domain SEQ ID NO: 675 (designed binder)
chain: MGSWYEFEDRLAAIEARLWALGGSEAELADFEEEIAYFEHGLQWYKGKGNPEVEALESEAMAIIDELHAYRHN
B28: D domain SEQ ID NO: 670 (designed binder)
chain: MGSWWEFEDRLWAIEQRLDALGGSEAELAVFENSIAKFEDMLQVYKGKGNPEVEALHEEADAIIWELYAYRHN
B29: D domain SEQ ID NO: 660 (designed binder)
chain: MGSWYEFEQRLGAIEERLWALGGSEAELAAFEDIIAYFEYQLQSYKGKGNPEVEALDEEAWAIDDELWAYRHN
B30: D domain SEQ ID NO: 663 (designed binder)
chain: MGSWVEFYDRLEAIEIRLWALGGSEAELADFESFIAHFEDDLQAYKGKGNPEVEALMDEANAIVFELDAYRHN
B31: D domain SEQ ID NO: 664 (designed binder)
chain: MGSWVEFWDRLDAIEERLWALGGSEAELAEFEFMIAMFEQHLQEYKGKGNPEVEALIPEAGAIDKELTAYRHN
B32: D domain SEQ ID NO: 672 (designed binder)
chain: MGSWWEFLDRLEAIEYRLQALGGSEAELAVFEWEIAMFEDHLQGYKGKGNPEVEALHSEAHAIISELSAYRHN
B33: D domain SEQ ID NO: 661 (designed binder)
chain: MGSWWEFEQRLDAIETRLWALGGSEAELAYFEHIIADFEDELQIYKGKGNPEVEALGWEAFAIDGELTAYRHN
B34: D domain SEQ ID NO: 671 (designed binder)
chain: MGSWWEFEDRLWAIDRRLMALGGSEAELAVFEQMIAHFEQILQVYKGKGNPEVEALHFEAHAIGMELAAYRHN
B35: D domain SEQ ID NO: 674 (designed binder)
chain: MGSWWEFYDRLTAIEARLWALGGSEAELADFEEGIADFEYDLQDYKGKGNPEVEALFWEAWAIQSELTAYRHN
B36: D domain SEQ ID NO: 669 (designed binder)
chain: MGSWFEFQWRLEAIEDRLWALGGSEAELAEFETIIAGFEEQLQVYKGKGNPEVEALEEEAMAIQTELHAYRHN
B37: D domain SEQ ID NO: 667 (designed binder)
chain: MGSWHEFIWRLDAIEERLWALGGSEAELAWFETEIATFEAQLQDYKGKGNPEVEALEWEAIAIAWELDAYRHN
B38: D domain SEQ ID NO: 666 (designed binder)
chain: MGSWYEFWRRLDAIEERLWALGGSEAELAMFETDIAGFEWMLQLYKGKGNPEVEALEHEAWAINSELDAYRHN
B39: D domain SEQ ID NO: 665 (designed binder)
chain: MGSWDEFDARLWAIEERLWALGGSEAELAEFEFMIAAFEDVLQEYKGKGNPEVEALMGEANAIVMELDAYRHN

For the first assay, the target named is T1, P26 (human, UniProt P02771 381-609, limits assumed).
T1 construct: also called AFP p26
T1 sequence: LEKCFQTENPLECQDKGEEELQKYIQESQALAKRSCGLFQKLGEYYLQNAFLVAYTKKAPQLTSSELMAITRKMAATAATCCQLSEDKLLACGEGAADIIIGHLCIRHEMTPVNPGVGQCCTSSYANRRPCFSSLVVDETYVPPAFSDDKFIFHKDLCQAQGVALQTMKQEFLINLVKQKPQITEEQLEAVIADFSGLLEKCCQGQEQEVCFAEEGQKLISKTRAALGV
Put plainly: ELISA, format not described. Details: unit not given here. Background: In an ELISA, binding on a coated surface is turned into a signal by an enzyme label.
B1 came in with an ELISA_avg of 25.6. Still for that read-out and setting: as for B2, the figure is 20.6; as for B3, 8.6. Still for that read-out and setting: under B4 stands 15.6. On the same count and under the same terms, as for B5, the figure is 24.1; as for B6, 16.7; as for B7, 32.3. Molecule B8 gave an ELISA_avg of 17.8. On the same count and under the same terms, as for B9, the figure is 14.2.

In turn, B10 registered an ELISA_avg of 16.6. The same measure, in the same setting: under B11 stands 30.3. Still for that read-out and setting: as for B12, the figure is 27.9.

B13: the ELISA_avg amounted to 30.8. The same measure, in the same setting: as for B14, the figure is 24.1; as for B15, 17.4. On the same count and under the same terms, under B16 stands 11.6; under B17, 29.7; under B18, 31.5. On the same count and under the same terms, under B19 stands 18.9. In turn, B20 had an ELISA_avg of 25.6. Regarding B21, the ELISA_avg was determined as 30.4. On the same count and under the same terms, as for B22, the figure is 17.9; as for B23, 29.9.

A further assay has as its target T2, CD123 (Homo sapiens (Human), UniProt P26951 19-305, limits assumed).
T2 construct: also called CD123-Signal
T2 sequence: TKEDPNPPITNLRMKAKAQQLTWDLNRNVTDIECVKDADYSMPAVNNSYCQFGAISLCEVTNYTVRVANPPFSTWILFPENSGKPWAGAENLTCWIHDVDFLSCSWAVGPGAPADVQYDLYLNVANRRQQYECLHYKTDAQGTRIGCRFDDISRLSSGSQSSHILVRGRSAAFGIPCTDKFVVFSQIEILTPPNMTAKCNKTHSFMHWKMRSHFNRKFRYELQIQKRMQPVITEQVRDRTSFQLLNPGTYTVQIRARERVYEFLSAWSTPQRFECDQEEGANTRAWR
Put plainly: ELISA, format not described. Details: unit not given here.
For the molecule B24, the ELISA_avg is 4.2. The same measure, in the same setting: as for B25, the figure is 3.1; as for B26, 3.7; as for B27, 3.8. Still for that read-out and setting: under B28 stands 4.4; under B29, 10.6; under B30, 4.

In turn, B31 gave an ELISA_avg of 10. Still for that read-out and setting: as for B32, the figure is 3.1; as for B33, 4.7.

For B34, the ELISA_avg was determined as 4.6. As to B35, the ELISA_avg was found to be 3.2. The same measure, in the same setting: as for B36, the figure is 3.4; as for B37, 3.3.

In turn, B38 displayed an ELISA_avg of 3.6. Take B39: the ELISA_avg amounted to 4.3.
